Here are results for 4 substances from article PMC3873559.

This assay addresses human factor Xa (plasma-derived) (human). Kind of assay: kinetic titration of prothrombinase (thrombin generation read with a chromogenic substrate); apparent KD; limiting fXa (15 pM), fV/fVa species varied (30 pM to 10 nM; 0 to 15 nM by the legend of Fig. 4), PCPS vesicles 20 μM, DAPA 3 μM, prothrombin 1.4 μM, Spectrozyme-TH 0.4 mM; fitted to a one binding site model.

Sequence of human factor Xa (plasma-derived) (human) (P00742 whole entry): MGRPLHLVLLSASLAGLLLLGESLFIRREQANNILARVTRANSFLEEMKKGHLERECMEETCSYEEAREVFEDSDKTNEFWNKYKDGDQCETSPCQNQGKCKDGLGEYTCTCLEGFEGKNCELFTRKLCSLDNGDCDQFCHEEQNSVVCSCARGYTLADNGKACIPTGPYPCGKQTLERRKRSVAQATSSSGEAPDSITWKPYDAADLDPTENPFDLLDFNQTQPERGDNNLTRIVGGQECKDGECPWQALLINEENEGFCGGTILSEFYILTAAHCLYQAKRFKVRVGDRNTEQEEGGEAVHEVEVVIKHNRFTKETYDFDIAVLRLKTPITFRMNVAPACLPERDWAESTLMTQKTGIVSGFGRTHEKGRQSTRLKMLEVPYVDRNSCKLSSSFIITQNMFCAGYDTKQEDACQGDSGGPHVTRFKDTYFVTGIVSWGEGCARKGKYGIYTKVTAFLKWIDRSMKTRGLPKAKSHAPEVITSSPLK

Consider “fVa purified from pooled fresh frozen normal plasma (fVa^plasma) (from UniProt P12259 29-737; P12259 1574-2224) (complex)”, for which the Kd is 0.51 nM.

“wild type recombinant human fV incubated with thrombin (fVa^WT) (from UniProt P12259 29-737; P12259 1574-2224) (complex)”: the Kd was 0.28 nM.

On to “recombinant human fV with Arg1018 and Arg1545 mutated to glutamine following incubation with thrombin (fVa^RQQ) (from UniProt P12259 29-737; P12259 738-2224) (complex)”, for which the Kd came to 0.92 nM.

Take “recombinant human fV with region 1000–1008 deleted and the thrombin activation cleavage sites (Arg709/Arg1018/Arg1545) mutated to glutamine (fV^ΔB9/Q3) (from UniProt P12259 29-2224) (natural protein)”: the Kd worked out at 0.73 nM.
